The values below come from patent publication US9562073B2, “Matriptase and u-plasminogen activator substrates and other cleavable moieties and methods of use thereof” (CytomX Therapeutics, Inc., priority 2014, dated 2017).

The target in the test is T1, Human matriptase-1 (Homo sapiens, UniProt Q9Y5Y6).
T1 construct: purchased Research & Diagnostics Systems, Inc
T1 sequence (Q9Y5Y6 1-855): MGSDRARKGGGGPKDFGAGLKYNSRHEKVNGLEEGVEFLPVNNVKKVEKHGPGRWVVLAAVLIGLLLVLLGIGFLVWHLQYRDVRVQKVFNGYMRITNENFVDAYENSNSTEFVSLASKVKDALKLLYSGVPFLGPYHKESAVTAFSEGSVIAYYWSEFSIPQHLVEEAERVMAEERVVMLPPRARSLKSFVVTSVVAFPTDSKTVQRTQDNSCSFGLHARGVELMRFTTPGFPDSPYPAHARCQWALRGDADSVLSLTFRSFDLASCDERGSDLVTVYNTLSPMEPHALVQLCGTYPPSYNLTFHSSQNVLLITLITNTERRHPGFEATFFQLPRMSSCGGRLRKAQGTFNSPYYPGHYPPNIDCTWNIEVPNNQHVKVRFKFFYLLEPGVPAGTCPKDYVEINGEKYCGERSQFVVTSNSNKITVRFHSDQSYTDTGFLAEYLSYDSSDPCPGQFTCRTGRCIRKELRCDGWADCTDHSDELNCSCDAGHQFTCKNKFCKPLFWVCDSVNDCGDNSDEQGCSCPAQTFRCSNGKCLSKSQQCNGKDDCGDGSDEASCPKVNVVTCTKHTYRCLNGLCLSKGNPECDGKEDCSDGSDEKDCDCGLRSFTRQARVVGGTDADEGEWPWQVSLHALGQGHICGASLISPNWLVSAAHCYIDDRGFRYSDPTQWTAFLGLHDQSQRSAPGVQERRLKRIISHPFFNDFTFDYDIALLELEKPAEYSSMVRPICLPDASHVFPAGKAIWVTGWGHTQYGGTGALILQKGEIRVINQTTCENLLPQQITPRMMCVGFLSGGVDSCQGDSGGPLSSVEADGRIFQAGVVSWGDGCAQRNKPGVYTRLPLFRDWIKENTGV
Kind of test: Substrate cleavage by matriptase-1 on cell-displayed platform scaffold (eCLiPS3.0), flow cytometry. The format is biochemical. As to conditions: substrate displayed in platform scaffold; TBST. As to the method: Reagents and Strains: Streptavidin-conjugated phycoerythrin (SA-PE) (Invitrogen, Life Technologies) was used without modifications. Human matriptase-1 (Research & Diagnostics Systems, Inc.) was used without modifications. Human plasmin (Haematologic Technologies Inc.) was used without modifications. Human tPA (Molecular Innovations) was used without modifications. YPet fused to the SH3 domain of Mona (monocytic adaptor) was used without modifications. TBST, 50 mM Tris-HCl, 150 mM NaCl, 0.05% Tween20, pH 7.4, was used. […]
Substrate Cleavage and Scaffold Stability Analysis: For screening and clone analysis, overnight cultures were subcultured by dilution into fresh medium (1:50) and grown for 1.5-2 hours. […] After incubation on ice (30 min), cells were washed with PBS and analyzed using a FACSAria™ cell sorter.
For protease cleavage assays, cultures were induced for 1 hour. […] Background hydrolysis of the regions flanking the substrate site (using platform eCLiPS3.0-NSUB_SP described in PCT patent application PCT/US13/54378, filed Aug. 9, 2013 and published as WO 2014/026136 on Feb. 13, 2014), was measured under each reaction condition to ensure that hydrolysis occurred in the designated substrate region. […]
Specifically, for each sample, conversion was determined by flow cytometry analyses using the relationship […]
[formula] allowing substrate conversion to be expressed as […]
(In general: Flow cytometry measures light scatter and fluorescence of single cells or particles in a stream.)

Consider VAGRSMRP (Cleavable moiety), for which the “cleavage by matriptase-1” value is given as “cleavage”.
